Here are results for two molecules from US20140128280A1 (published 2014).

In one assay the target is T1, transferrin (human, UniProt P02787 20-698).
T1 construct: Amine-coupled to SPR chips, tips or beads; Alexa 555-labeled on arrays; also called TRF; pooled human transferrin (Sigma)
The experiment in a line: SPR (Biacore A-100), purified peptide at several concentrations. For orientation: Surface plasmon resonance follows binding to a sensor surface in real time, without labels.

The target in assay [1] is T2, Gal80 (UniProt P04387 1-435, limits assumed).
T2 construct: Cy3/Cy5-labeled on arrays; immobilized on SPR chip or ELISA well, or in solution over immobilized synbody
T2 sequence (looked up): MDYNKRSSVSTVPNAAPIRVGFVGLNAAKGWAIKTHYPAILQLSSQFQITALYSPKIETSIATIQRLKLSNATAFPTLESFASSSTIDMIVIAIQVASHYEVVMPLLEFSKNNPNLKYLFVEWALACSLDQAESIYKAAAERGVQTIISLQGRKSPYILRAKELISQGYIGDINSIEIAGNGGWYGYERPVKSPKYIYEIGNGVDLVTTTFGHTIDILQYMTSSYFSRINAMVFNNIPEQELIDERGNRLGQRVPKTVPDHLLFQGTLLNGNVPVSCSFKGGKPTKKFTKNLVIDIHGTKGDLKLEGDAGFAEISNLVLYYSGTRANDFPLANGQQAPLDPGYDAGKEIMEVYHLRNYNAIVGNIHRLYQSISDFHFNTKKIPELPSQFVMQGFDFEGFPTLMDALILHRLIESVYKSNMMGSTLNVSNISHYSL
Put plainly: SPR, synbody in solution (1 µM to 7.81 nM) over surface-bound Gal80.

Another assay concerns the target T3, α1-antitrypsin.
T3 construct: also called α-antitrypsin; α-antitrypsine
The experiment in a line: SPR.

The target in assay [2] is T2, Gal80. The experiment in a line: gel shift assay. Background: Mobility shift assays separate free from complexed probe on a gel.

A word on the Kd: it is a measure of binding affinity in units of concentration.

T3 sequence (P01009 25-418): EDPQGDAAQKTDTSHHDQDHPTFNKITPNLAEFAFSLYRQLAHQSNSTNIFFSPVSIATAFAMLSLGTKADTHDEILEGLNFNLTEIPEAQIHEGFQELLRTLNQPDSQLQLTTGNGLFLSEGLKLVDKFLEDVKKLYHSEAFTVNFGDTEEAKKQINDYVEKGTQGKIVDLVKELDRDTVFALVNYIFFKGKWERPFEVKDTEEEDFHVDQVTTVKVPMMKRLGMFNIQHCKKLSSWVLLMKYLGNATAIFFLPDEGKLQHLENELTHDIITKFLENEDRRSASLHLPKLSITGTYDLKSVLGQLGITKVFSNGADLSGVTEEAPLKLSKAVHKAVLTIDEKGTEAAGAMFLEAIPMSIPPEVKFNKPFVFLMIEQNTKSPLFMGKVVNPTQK
T1 sequence (P02787 20-698 limits assumed): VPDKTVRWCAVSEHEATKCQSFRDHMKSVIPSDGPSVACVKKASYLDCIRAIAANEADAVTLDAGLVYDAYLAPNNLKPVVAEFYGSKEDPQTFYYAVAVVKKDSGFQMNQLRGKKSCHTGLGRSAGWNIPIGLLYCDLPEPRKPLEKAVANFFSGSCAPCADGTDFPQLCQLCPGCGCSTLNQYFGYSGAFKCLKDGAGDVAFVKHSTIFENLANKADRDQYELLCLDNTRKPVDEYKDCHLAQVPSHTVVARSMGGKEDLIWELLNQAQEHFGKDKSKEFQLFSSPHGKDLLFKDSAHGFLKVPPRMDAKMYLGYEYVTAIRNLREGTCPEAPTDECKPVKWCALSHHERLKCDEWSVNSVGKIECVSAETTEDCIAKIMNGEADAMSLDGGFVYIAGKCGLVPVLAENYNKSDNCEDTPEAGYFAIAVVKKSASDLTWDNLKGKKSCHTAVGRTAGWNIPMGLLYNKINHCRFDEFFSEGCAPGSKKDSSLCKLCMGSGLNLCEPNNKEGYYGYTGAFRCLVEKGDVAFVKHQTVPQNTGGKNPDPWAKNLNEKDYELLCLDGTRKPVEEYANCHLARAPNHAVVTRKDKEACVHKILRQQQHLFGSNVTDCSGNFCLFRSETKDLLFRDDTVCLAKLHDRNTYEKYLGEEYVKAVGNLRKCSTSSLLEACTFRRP
Source text for transferrin: A Biacore A-100 Surface Plasmon Resonance (SPR) system was used to measure the binding response of each peptide to several different target proteins immobilized on a gold surface. The A-100 has four different flow cells and within each flow cell are five addressable spots. Therefore four different proteins and a negative control reference can be used per flow cell. […] Sensorgrams are collected from each immobilized protein, so a binding profile for each analyte versus each of the protein targets is generated for each injection. Target proteins were immobilized using a biotin capture approach in which a CM5 chip was activated using standard amine coupling chemistry and Neutravidin was covalently coupled to the chip. Each biotinylated protein was injected over a single spot and the amount of protein captured was measured. In this manner four proteins were immobilized per flow cell. In this example, the same four proteins were captured in all four flow cells for this experiment.

As for NQYVPIFSQPEDPVQQEGSC (Screened unpurified) [TRF102], the binding result with transferrin is given as “no binding”.

B1: BP1/BP2 DNA-linked synbody (linker-optimized: BP1 on the template strand, BP2 at position 13 from the 3' end of the variable strand) (designed binder)
peptide 1: GTEKGTSGWLKTGSC
peptide 2: EGEWTEGKLSLRGSC
modifications: C-terminal Cys joined through SMCC to the amine-modified cytosine at position 13 from the 3' terminus of the DNA variable strand (SEQ ID NO: 15); C-terminal Cys joined through SMCC to the 5' terminal amine-modified cytosine of the DNA template strand (SEQ ID NO: 14)
notes: Two peptides held by a double-stranded DNA linker; also called Gal80 synbody; gal80 synbody
For B1, the Kd in the assay with Gal80 [1] was 91 nM; in the assay with Gal80 [2], about 100 nM. Further, the “Kd relative to the Kd for gal80” value with α1-antitrypsin came to 1000 fold.
